The record followed here is patent US20240301069A1 (GUANGDONG FAPON BIOPHARMA, published 2024).

In general, IC50 refers to the midpoint of a concentration-inhibition curve. By Kd is commonly meant a measure of binding affinity in units of concentration. The EC50 is the concentration needed to bring the measured effect to its halfway point.

Experiment [1] deals with T1, human B7-H3 protein (Acrobiosystem), hB7-H3 hFc (human, UniProt Q5ZPR3-2 29-245, limits assumed).
T1 construct: Bought; not shown: human Fc
T1 sequence (looked up): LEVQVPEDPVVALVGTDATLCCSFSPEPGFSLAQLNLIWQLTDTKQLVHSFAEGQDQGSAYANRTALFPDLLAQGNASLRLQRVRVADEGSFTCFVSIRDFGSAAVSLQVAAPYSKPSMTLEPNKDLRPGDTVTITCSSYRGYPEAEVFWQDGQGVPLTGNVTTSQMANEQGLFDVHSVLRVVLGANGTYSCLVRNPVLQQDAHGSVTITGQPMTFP
The experiment can be described thus: ELISA on coated hB7-H3 hFc. As to the method: (§1) Supernatant was discarded; a blocking solution (1×PBS+1% BSA) was added in 200 μL/well; and blocking was performed for 1 h at 37° C. […] Washing was performed for 3 times with the 1×PBS. HRP-labeled goat anti-mouse IgG (sigma A0168-1ML) was added in 100 μL/well; incubation was performed for 30 min at 37° C. in a standing manner; and after washing was performed for 3 times with the 1×PBS, a color reaction was performed.
A general note: ELISA stands for enzyme-linked immunosorbent assay.

Experiment [2] has as its target T2, human CD86 protein (Acrobiosystem), hCD86 hFc (human, UniProt P42081 26-247, limits assumed).
T2 construct: Bought; also called B7-2; not shown: human Fc
T2 sequence (looked up): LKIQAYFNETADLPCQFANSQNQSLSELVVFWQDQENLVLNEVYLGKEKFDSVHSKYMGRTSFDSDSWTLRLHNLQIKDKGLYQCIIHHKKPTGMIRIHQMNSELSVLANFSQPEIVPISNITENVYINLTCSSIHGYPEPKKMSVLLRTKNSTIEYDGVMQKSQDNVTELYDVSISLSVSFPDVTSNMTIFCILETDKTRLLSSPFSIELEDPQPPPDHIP
The experiment can be described thus: ELISA on coated hCD86 hFc. The protocol: as §1

Experiment [3] addresses T3, human ICOSLG protein (Acrobiosystem), hICOSLGhFc (human, UniProt O75144 19-258, limits assumed).
T3 construct: Bought; also called B7-H2; not shown: human Fc
T3 sequence (looked up): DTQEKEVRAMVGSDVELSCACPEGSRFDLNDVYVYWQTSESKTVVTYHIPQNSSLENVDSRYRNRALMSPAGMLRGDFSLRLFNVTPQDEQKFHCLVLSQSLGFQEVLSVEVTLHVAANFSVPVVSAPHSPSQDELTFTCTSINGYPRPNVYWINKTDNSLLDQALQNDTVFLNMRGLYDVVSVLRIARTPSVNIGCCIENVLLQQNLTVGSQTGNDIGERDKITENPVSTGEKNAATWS
The experiment can be described thus: ELISA on coated hICOSLG hFc. The protocol:
as §1

Experiment [4] has as its target T4, human PD-L2 protein (Acrobiosystem), hPD-L2 hFc (human, UniProt Q9BQ51 20-219, limits assumed).
T4 construct: Bought; also called B7-DC; not shown: human Fc
T4 sequence (looked up): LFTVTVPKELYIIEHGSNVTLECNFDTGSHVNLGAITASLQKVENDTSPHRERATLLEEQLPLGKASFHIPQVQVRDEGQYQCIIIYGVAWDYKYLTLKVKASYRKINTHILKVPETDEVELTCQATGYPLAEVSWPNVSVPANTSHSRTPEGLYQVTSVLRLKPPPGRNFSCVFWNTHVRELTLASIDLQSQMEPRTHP
The experiment can be described thus: ELISA on coated hPD-L2 hFc. As to the method:
as §1

Experiment [5] concerns the target T5, human PD-L1 full-length protein on CHO-hPD-L1 stable cells (human, UniProt Q9NZQ7 19-290).
T5 construct: also called membrane protein PD-L1
The experiment can be described thus: flow cytometry blocking assay (method 1): antibody titrated on CHO-hPD-L1 cells; blocked ligand recombinant human PD-1-hFc. As to the method:
[…] The 1×FCM buffer was used to resuspend the CHO-hPD-L1 cells to the cell density of 2×10E6/mL, and the cells were evenly spread in the 96-well V base plate in 100 μL/well. […] After 250×g was taken to perform centrifugation for 5 min, supernatant was discarded in a sucking manner. After washing was performed for 2 times with the 1×FCM buffer, the cells were resuspended by adding the 1×PBS in 100 μL/well; and the flow cytometer (Beckman, CytoFLEX) was used for detection.

Experiment [6] concerns the target T6, human PD-L1 extracellular domain recombinant protein hPD-L1-his (human, UniProt Q9NZQ7 19-238).
T6 construct: extracellular domain; Home-made; also called human PD-L1 recombinant protein; not shown: his label
Kind of experiment: BLI (ForteBIO QKe), hPD-L1-his captured on an anti-Penta-HIS sensor, antibody in solution. As to the method: An experimental method included the following.
An equilibration buffer (1×PBS+0.02% Tween20) was used to dilute a home-made human PD-L1 extracellular domain recombinant protein hPD-L1-his carrying a his label, until a final concentration reached 5 μg/mL. […] The whole reaction was undergone at 25° C. and 1000 rpm.
A general note: BLI is a label-free optical method that tracks binding on a fibre tip over time.

The target in experiment [7] is macaque PD-L1 on CHO-cynoPD-L1 stable cells (macaque, UniProt Q9NZQ7 19-290 (human entry)). Kind of experiment: flow cytometry, antibody titration on CHO-cynoPD-L1 cells, MFI-APC. In general terms: Flow cytometry measures light scatter and fluorescence of single cells or particles in a stream.
Sequence of macaque PD-L1 on CHO-cynoPD-L1 stable cells (Q9NZQ7 other isoform, or with tags, fused parts or gaps limits assumed): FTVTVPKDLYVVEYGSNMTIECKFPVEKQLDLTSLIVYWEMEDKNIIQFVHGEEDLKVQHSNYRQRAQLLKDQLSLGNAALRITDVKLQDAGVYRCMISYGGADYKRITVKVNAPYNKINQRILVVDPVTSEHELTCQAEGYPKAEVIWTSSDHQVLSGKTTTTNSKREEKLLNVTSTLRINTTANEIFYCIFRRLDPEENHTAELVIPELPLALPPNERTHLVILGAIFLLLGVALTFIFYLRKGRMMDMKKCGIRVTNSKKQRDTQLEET
For experiment [8], the target named is T7, recombinant human PD-L1 protein carrying a hFc label (human, UniProt Q9NZQ7 19-238).
T7 construct: Self-produced; also called hPD-L1 hFc; PD-L1-hFc; not shown: human Fc label
T7 sequence (Q9NZQ7 19-238): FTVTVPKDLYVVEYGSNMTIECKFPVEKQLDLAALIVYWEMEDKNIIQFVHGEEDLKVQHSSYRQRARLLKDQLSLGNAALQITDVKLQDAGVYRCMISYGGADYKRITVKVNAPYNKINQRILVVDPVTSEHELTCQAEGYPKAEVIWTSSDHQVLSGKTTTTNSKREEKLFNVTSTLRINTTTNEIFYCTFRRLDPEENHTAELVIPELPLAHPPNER
Kind of experiment: flow cytometry blocking assay (method 2): antibody titrated; binding of recombinant human PD-L1-hFc to PD-1 on CHO-hPD-1 cells is blocked. As to the method: The 1×FCM buffer was used to dilute the self-produced recombinant human PD-L1 protein carrying hFc, until the concentration reached 2 μg/mL. The 1×FCM buffer was used to resuspend the CHO-hPD-1 cells to the cell density of 2×10E6/mL, and the cells were evenly spread in the 96-well V base plate in 100 μL/well. […] After 250×g was taken to perform centrifugation for 5 min, supernatant was discarded in a sucking manner; after washing was performed once with the 1×FCM buffer, APC-labeled goat anti-mouse Fc fluorescent secondary antibodies (Biolegend) diluted by the 1×FCM buffer (dilution ratio being 1:500) were added in 100 μL/well; and incubation was performed on ice for 30 min. After 250×g was taken to perform centrifugation for 5 min, supernatant was discarded in a sucking manner. After washing was performed for 2 times with the 1×FCM buffer, the cells were resuspended by adding the 1×PBS in 100 μL/well; and the flow cytometer (Beckman, CytoFLEX) was used for detection.

Experiment [9] addresses T8, human CD28 protein (Acrobiosystem), hCD28 hFc (human, UniProt P10747 19-152).
T8 construct: Bought; not shown: human Fc
The experiment can be described thus: ELISA on coated hCD28 hFc. The protocol: as §1

The target of experiment [10] is T9, human CTLA-4 protein (Acrobiosystem), hCTLA-4 hFc (human, UniProt P16410 37-162, limits assumed).
T9 construct: Bought; not shown: human Fc
T9 sequence (P16410 37-162 limits assumed): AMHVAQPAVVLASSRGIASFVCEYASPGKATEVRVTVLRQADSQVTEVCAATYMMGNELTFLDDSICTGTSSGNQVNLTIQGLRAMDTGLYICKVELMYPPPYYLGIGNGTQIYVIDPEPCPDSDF
Kind of experiment: ELISA on coated hCTLA-4 hFc. As to the method:
as §1

In experiment [11] the target is T5, human PD-L1 full-length protein on …. Kind of experiment: flow cytometry, antibody titration on CHO-hPD-L1 cells, MFI-APC.
Experiment [12] has as its target T10, human PD-L1 on IFNγ-stimulated A375 cells (human, UniProt Q9NZQ7 19-290).
T10 construct: whole, on cells; PD-L1 of the A375 cells themselves; also called PD-L1 membrane protein
The experiment can be described thus: flow cytometry, antibody titration on human IFNγ-stimulated A375 cells, MFI-APC. As to the method:
An experimental process included the following.
50 ng/mL of the human IFNγ (R&D) was used to stimulate the expression of human PD-L1 on human melanoma cells A375 (Shanghai cell bank) overnight; on the next day, 0.25% pancreatin (Gibco) was used to digest the A375 cells; after washing was performed once with DPBS, live cell density was adjusted to 2E6/mL; and the mixture was added into the 96-well V base plate in 100 μL/well. […] The mixture was added into the cells in 100 μL/well; and incubation was performed on ice for 30 min in a standing manner, then 250×g was taken to perform centrifugation for 5 min, and supernatant was discarded in a sucking manner. After washing was performed for 2 times with the 1×FCM buffer, iFluor™633GAM fluorescent secondary antibodies (ATT bioquest) diluted by the 1×FCM buffer (dilution ratio being 1:400) were added in 100 μL/well; and incubation was performed on ice for 30 min. After 250×g was taken to perform centrifugation for 5 min, supernatant was discarded in a sucking manner. After washing was performed for 2 times with the 1×FCM buffer, the cells were resuspended by adding the 1×PBS in 100 μL/well; and the flow cytometer (Beckman, CytoFLEX) was used for detection.

Experiment [13] has as its target T5, human PD-L1 full-length protein on …. Kind of experiment: flow cytometry blocking assay: antibody titrated on CHO-hPD-L1 cells; blocked ligand recombinant human CD80-hFc.
The target in experiment [14] is T3, human ICOSLG protein (Acrobiosystem), …. The experiment can be described thus: ELISA on coated hFc fusion protein. As to the method: as §1
Experiment [15] concerns the target T4, human PD-L2 protein (Acrobiosystem), …. The experiment can be described thus: ELISA on coated hFc fusion protein. The protocol: as §1

T6 sequence (Q9NZQ7 19-238): as the sequence (Q9NZQ7 19-238) above
T5 sequence (Q9NZQ7 19-290 limits assumed): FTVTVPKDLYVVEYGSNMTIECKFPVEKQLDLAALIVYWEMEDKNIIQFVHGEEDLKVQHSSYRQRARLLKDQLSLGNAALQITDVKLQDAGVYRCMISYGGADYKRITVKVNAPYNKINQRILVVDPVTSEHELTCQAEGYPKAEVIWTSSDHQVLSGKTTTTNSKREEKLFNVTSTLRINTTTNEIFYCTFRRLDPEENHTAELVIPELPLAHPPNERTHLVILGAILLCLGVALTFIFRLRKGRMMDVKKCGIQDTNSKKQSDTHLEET
T10 sequence (Q9NZQ7 19-290): as the sequence (Q9NZQ7 19-290 limits assumed) above

B1: F016-568 (antibody, V domains shown)
VH: QLQESGPSLVKPSQTLSLTCSVTGDSITSDYWNWIRKFPGNKLEYMGYISYTGSTYYNPSLKSRISITRDTSKNQYYLQLNSVTTEDTATYYCAKQGGWLNAMDYWGQGTSVTVSS
VL: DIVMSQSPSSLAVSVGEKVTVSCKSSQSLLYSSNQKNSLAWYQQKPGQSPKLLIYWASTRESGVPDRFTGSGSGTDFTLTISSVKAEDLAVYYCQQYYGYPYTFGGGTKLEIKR
notes: Mouse hybridoma monoclonal antibody; also called anti-human PD-L1 antibody F016-568
In the case of B1, the binding result in [1], in experiment [2], in [3], in experiment [4], in [9] and in experiment [10] was “no binding (tested: 10 µg/mL)” in each case. In addition, the IC50 in experiment [5] came to 6.9 nM; in [8], 1.69 nM. Besides, the dissociation constant Kd in [6] was 0.101 nM. The results for the EC50 in [7], in experiment [11] and in experiment [12] were 1.29 nM, 1.25 nM and 0.175 nM, respectively.

B2: F016-870 (antibody, V domains shown)
VH: EVQLQESGPSLVKPSQTLSLTCSVTGDSITSGYWNWIRKFPGNKLEYMGYISYTGSTYQNPSLKSRISFTRDTSKNQYYLQLSSVTTEDTATYYCARSRAWIRTYFDYWGQGTTLTVSS
VL: EIVLTQSPALMAASPGEKVTITCSVSSSISSSNLHWYQQKSETSPKPWIYGTSNLASGVPVRFSGSGSGTSYSLTISSMEAEDAATYYCQQWSSYPLTFGAGTKLELKR
notes: Mouse hybridoma monoclonal antibody; also called anti-human PD-L1 antibody F016-870
As for B2, the binding result in [1], in [2], in [3], in experiment [4], in [9] and in experiment [10] was “no binding (tested: 10 µg/mL)” in each case. For the same molecule, the IC50 in experiment [5] was found to be 5.22 nM; in [8] it was 1.61 nM; in experiment [13], 4.91 nM. For the same molecule, in [6], the Kd amounted to 0.0742 nM. Further, the EC50 is 0.949 nM in experiment [7] and 1.1 nM in experiment [11].

B3: F016-193 (antibody, V domains shown)
VH: EVQLQQSGPELVKPGASVKMSCKASGYTFTSYVMHWVKQKPGQGLEWIGYINPHNDGNKYNEKFKGKATLTSDKSSSSAYMELSSLTSEDSAVYYCAKQTMDYWGQGTSVTVSS
VL: DIVLTQSPASLAVSLGQRATLSCRASESVEFYGTTLMQWFQQKPGQPPKLLIYAASNVESGVPARFSGSGSGTDFSLNIHPVEEDDIAMYFCQQSRKVPYTFGGGTKLEIKR
notes: Mouse hybridoma monoclonal antibody; also called anti-human PD-L1 antibody F016-193
Turning to B3, the binding result in [1], in [2], in experiment [9], in experiment [10], in experiment [14] and in experiment [15] was “no binding (tested: 10 µg/mL)” in each case. Moreover, the concentration for half-maximal inhibition (IC50) in experiment [5] is 4.98 nM; in experiment [8], 0.993 nM; in experiment [13], 4.47 nM. The Kd in experiment [6] is 0.0098 nM. Moreover, the EC50 in experiment [11] worked out at 0.561 nM; in experiment [12] it was 0.128 nM.
